Results published in the supplement of paper PMC11246515.
± gives the standard deviation of the averaged measurements.

Assay: total protein half-life in vivo (active degradation + dilution); higher = more stable protein
[1] = E. coli NCM3722 delta-clpP delta-lon delta-hslV, growth: N-lim chemostat, doubling time 6 h
[2] = E. coli NCM3722 delta-clpP, growth: N-lim chemostat, doubling time 6 h
[3] = E. coli NCM3722 delta-hslV, growth: N-lim chemostat, doubling time 6 h
[4] = E. coli NCM3722 delta-lon, growth: N-lim chemostat, doubling time 6 h
[5] = E. coli NCM3722 delta-smpB, growth: N-lim chemostat, doubling time 6 h
[6] = wild type E. coli NCM3722, growth: C-lim chemostat, doubling time 3 h
[7] = wild type E. coli NCM3722, growth: C-lim chemostat, doubling time 12 h
[8] = wild type E. coli NCM3722, growth: N-lim chemostat, doubling time 6 h
[9] = wild type E. coli NCM3722, growth: N-lim chemostat, doubling time 12 h
[10] = wild type E. coli NCM3722, growth: P-lim chemostat, doubling time 6 h
[11] = wild type E. coli NCM3722, growth: P-lim chemostat, doubling time 12 h
[12] = wild type E. coli NCM3722, growth: C-lim chemostat, doubling time 6 h

Sequence	total protein half-life in vivo [1]	total protein half-life in vivo [2]	total protein half-life in vivo [3]	total protein half-life in vivo [4]	total protein half-life in vivo [5]	total protein half-life in vivo [6]	total protein half-life in vivo [7]	total protein half-life in vivo [8]	total protein half-life in vivo [9]	total protein half-life in vivo [10]	total protein half-life in vivo [11]	total protein half-life in vivo [12]
MIDTTLPLTDIHRHLDGNIRPQTILELGRQYNISLPAQSLETLIPHVQVIANEPDLVSFLTKLDWGVKVLASLDACRRVAFENIEDAARHGLHYVELRFSPGYMAMAHQLPVAGVVEAVIDGVREGCRTFGVQAKLIGIMSRTFGEAACQQELEAFLAHRDQITALDLAGDELGFPGSLFLSHFNRARDAGWHITVHAGEAAGPESIWQAIRELGAERIGHGVKAIEDRALMDFLAEQQIGIESCLTSNIQTSTVAELAAHPLKTFLEHGIRASINTDDPGVQGVDIIHEYTVAAPAAGLSREQIRQAQINGLEMAFLSAEEKRALREKVAAK	5.4 ± 0.46 h	4.73 ± 0.99 h	4.41 ± 0.094 h	5.25 ± 0.55 h	4.49 ± 0.38 h	2.88 ± 0.36 h	10.6 ± 0.3 h	4.68 ± 0.59 h	7.15 ± 0.088 h	5.63 ± 0.2 h	11 ± 0.3 h	
MIDYEVLRFIWWLLVGVLLIGFAVTDGFDMGVGMLTRFLGRNDTERRIMINSIAPHWDGNQVWLITAGGALFAAWPMVYAAAFSGFYVAMILVLASLFFRPVGFDYRSKIEETRWRNMWDWGIFIGSFVPPLVIGVAFGNLLQGVPFNVDEYLRLYYTGNFFQLLNPFGLLAGVVSVGMIITQGATYLQMRTVGELHLRTRATAQVAALVTLVCFALAGVWVMYGIDGYVVKSTMDHYAASNPLNKEVVREAGAWLVNFNNTPILWAIPALGVVLPLLTILTARMDKAAWAFVFSSLTLACIILTAGIAMFPFVMPSSTMMNASLTMWDATSSQLTLNVMTWVAVVLVPIILLYTAWCYWKMFGRITKEDIERNTHSLY [P0ABK2]	> 8 h		6.72 h	5.91 h	5.4 h			6.61 h	12.2 ± 1.9 h	6.45 ± 0.17 h	12.9 ± 0.13 h	6.31 h
MIDYKKNLLFILVFISGFILFTVYSYTAEKMIYNETCTANWVIFNDQGRANLTIDFMYNKKNKTGTVALSGTWQQGNRESKSIRRNIEYTWIENYDTAHLTSKKVNKFEIMDQVDDDRLAQLIPDFYVFPEKSVSYNILKQGKHAFILSIGNRAIMHCAR							> 16 h					
MIEADRLISAGTTLPEDVADRAIRPKLLEEYVGQPQVRSQMEIFIKAAKLRGDALDHLLIFGPPGLGKTTLANIVANEMGVNLRTTSGPVLEKAGDLAAMLTNLEPHDVLFIDEIHRLSPVVEEVLYPAMEDYQLDIMIGEGPAARSIKIDLPPFTLIGATTRAGSLTSPLRDRFGIVQRLEFYQVPDLQYIVSRSARFMGLEMSDDGALEVARRARGTPRIANRLLRRVRDFAEVKHDGTISADIAAQALDMLNVDAEGFDYMDRKLLLAVIDKFFGGPVGLDNLAAAIGEERETIEDVLEPYLIQQGFLQRTPRGRMATTRAWNHFGITPPEMP [P0A812]		3.14 ± 0.2 h	1.8 ± 0.077 h	2.7 ± 0.38 h	1.63 ± 0.079 h	2.35 ± 0.51 h	5.83 ± 0.95 h	2.08 ± 0.048 h	2.46 ± 0.039 h	3.14 ± 0.27 h	4.66 ± 0.42 h	3.53 ± 0.55 h
MIEFKNVSKHFGPTQVLHNIDLNIAQGEVVVIIGPSGSGKSTLLRCINKLEEITSGDLIVDGLKVNDPKVDERLIRQEAGMVFQQFYLFPHLTALENVMFGPLRVRGANKEEAEKLARELLAKVGLAERAHHYPSELSGGQQQRVAIARALAVKPKMMLFDEPTSALDPELRHEVLKVMQDLAEEGMTMVIVTHEIGFAEKVASRLIFIDKGRIAEDGNPQVLIKNPPSQRLQEFLQHVS	6.81 ± 0.9 h	5.7293 ± 0.0055 h	5.292 ± 0.039 h	5.12 ± 0.18 h	5.72 ± 0.6 h	2.93 ± 0.62 h	11.9 ± 0.78 h	6.79 h	11.5 ± 0.64 h	5.25 h	12.5 ± 0.99 h	4.88 ± 1.6 h
MIEFSHVSKLFGAQKAVNDLNLNFQEGSFSVLIGTSGSGKSTTLKMINRLVEHDSGEIRFAGEEIRSLPVLELRRRMGYAIQSIGLFPHWSVAQNIATVPQLQKWSRARIDDRIDELMALLGLESNLRERYPHQLSGGQQQRVGVARALAADPQVLLMDEPFGALDPVTRGALQQEMTRIHRLLGRTIVLVTHDIDEALRLAEHLVLMDHGEVVQQGNPLTMLTRPANDFVRQFFGRSELGVRLLSLRSVADYVRREERADGEALAEEMTLRDALSLFVARGCEVLPVVNMQGQPCGTLHFQDLLVEA	5.87 ± 0.78 h	5.31 ± 0.036 h		4.82 h	4.51 ± 0.06 h	2.77 ± 0.11 h	8.02 ± 0.57 h	5.05 ± 0.085 h	7.777 ± 0.046 h	4.85 ± 0.33 h	8.835 ± 0.04 h	4.96 ± 0.22 h
MIEIESRELADIPVLHAYPVGQKDTPLPCVIFYHGFTSSSLVYSYFAVALAQAGLRVIMPDAPDHGSRFSGDAARRLNQFWQILLQSMQEFTTLRAAIAEENWLLDDRLAVGGASMGAMTALGITARHPTVRCTASMMGSGYFTSLARSLFPPLIPETAAQQNEFNNIVAPLAEWEATNHLEQLSDRPLLLWHGLDDDVVPADESLRLQQALSETGRDKLLTCSWQPGVRHRITPEALDAAVTFFRQHL	4.25 ± 0.61 h		4.061 ± 0.029 h	4.32 ± 0.38 h	3.95 ± 0.12 h	3.24 ± 0.097 h	11 ± 0.45 h	4.11 ± 0.3 h	6.87 ± 0.64 h	5.95 ± 0.17 h	12.2 ± 0.79 h	5.72 ± 0.33 h
MIEKIWSGESPLWRLLLPLSWLYGLVSGAIRLCYKLKLKRAWRAPVPVVVVGNLTAGGNGKTPVVVWLVEQLQQRGIRVGVVSRGYGGKAESYPLLLSADTTTAQAGDEPVLIYQRTDAPVAVSPVRSDAVKAILAQHPDVQIIVTDDGLQHYRLARDVEIVVIDGVRRFGNGWWLPAGPMRERAGRLKSVDAVIVNGGVPRSGEIPMHLLPGQAVNLRTGTRCDVAQLEHVVAMAGIGHPPRFFATLKMCGVQPEKCVPLADHQSLNHADVSALVSAGQTLVMTEKDAVKCRAFAEENWWYLPVDAQLSGDEPAKLLTQLTLLASGN	6.05 ± 0.42 h	6.49 h	6.52 ± 1.2 h	6.39 ± 0.34 h	5.71 ± 0.64 h	3.11 ± 0.41 h	8.44 h	5.52 h			13.8 ± 2 h	7.25 ± 0.18 h
MIENRPWLTIFSHTMLILGIAVILFPLYVAFVAATLDKQAVYAAPMTLIPGTHLLENIHNIWVNGVGTNSAPFWRMLLNSFVMAFSITLGKITVSMLSAFAIVWFRFPLRNLFFWMIFITLMLPVEVRIFPTVEVIANLQMLDSYAGLTLPLMASATATFLFRQFFMTLPDELVEAARIDGASPMRFFCDIVFPLSKTNLAALFVITFIYGWNQYLWPLLIITDVDLGTTVAGIKGMIATGEGTTEWNSVMVAMLLTLIPPVVIVLVMQRAFVRGLVDSEK							14.5 h			6.34 h	12.6 ± 2.1 h	
MIEQFFRPDSVEQALELKRRYQDEAVWFAGGSKLNATPTRTDKKIAISLQDLELDWVDWDNGALRIGAMSRLQPLRDARFIPAALREALGFVYSRHVRNQSTIGGEIAARQEESVLLPVLLALDAELVFGNGETLSIEDYLACPCDRLLTEIIIKDPYRTCATRKISRSQAGLTVVTAAVAMTDHDGMRIALDGVASKALRLHDVEKQNLEGNALEQAVANAIFPQEDLRGSVAYKRYITGVLVADLYADCQQAGEEAV				0.974 h								
